This note sets out measurements from patent US20240058465A1 (SUTRO BIOPHARMA, published 2024).

For orientation: Kd means the constant that tells how readily two partners part at equilibrium. The low end stands for higher affinity, the high end for lower affinity.

The target in this test is T1, human ROR1 (hROR1) (human, UniProt Q01973 30-937).
T1 construct: On HCT116-hROR1 transfectants, Mino cells or Ntera-2 cells, as the assay of each row says; also called receptor tyrosine kinase like orphan receptor 1
Briefly: flow cytometry, HCT116-hROR1 cells. The protocol:
A mix of ROR1 positive and negative cells was prepared as follows. Ror1 negative cells were washed 2× in PBS then incubated in PBS containing 1 nM CellTrace™ Oregon Green488® (Life Technologies) at 37° C. for 30 minutes. Cells were then washed 2× with RPMI w/10% fetal calf serum (or FCS), washed 2× with FACS buffer (PBS+0.5% BSA), suspended thoroughly in ice-cold FACS buffer at a final concentration of 4×10^6 cells/ml and kept on ice. ROR1 positive cells were washed 2× in PBS and suspended with ice-cold FACS buffer at 4×10^6 cells/ml. ROR1 positive and negative cells were then mixed to obtain a 1-1 cell suspension and seeded at 50 μl per well on 96 well polypropylene plates. 50 μl of 6-12 point dilutions of anti-ROR1 variants starting from concentrations of ˜100-200 nM antibody was dispensed using BioMekFX (Beckman Coulter) into each well. Cells were then incubated on ice for 1 hr, washed with FACS buffer and incubated for 1 hr on ice with 50 μl FACS buffer containing 2.5 μg/ml Alexa647-conjugated Goat Anti-Human IgG dispensed using BioMekFX (Beckman Coulter). Cells were then washed 2× with FACS buffer and fixed for 10 minutes in 200 μl PBS with 2% PFA prior to fluorescence detection. Samples were acquired using a Beckton Dickinson LSRII FACS. Mean Fluorescence Intensity of ROR1 antibody binding was analyzed using FlowJo® software (Tree Star, Inc.).
Background: In flow cytometry, cells or beads pass a laser one at a time.

B1: SRP2193-D03 (antibody, IgG1, V domains shown)
VH: EVQLVESGGGLVQPGGSLRLSCAASGFNINDHYIHWVRQAPGKGLEWVSAIDPNTGSTVNADSVKGRFTISADTSKNTAYLQMNSLRAEDTAVYYCARSRWSRVLWIYVFDYWGQGTLVTVSS
VL: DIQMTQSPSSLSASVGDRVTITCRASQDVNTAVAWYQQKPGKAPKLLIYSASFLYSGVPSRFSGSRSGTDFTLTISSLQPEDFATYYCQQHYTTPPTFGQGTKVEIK
notes: His/FLAG-tagged IgG1, cell-free; also called Antibody 93
As to B1, the “Bmax (MFI)” value was 15700 MFI and binding was characterised by a dissociation constant (Kd) of 0.93 nM.

B2: SRP2193-E04 (antibody, IgG1, V domains shown)
VH: EVQLVESGGGLVQPGGSLRLSCAASGFNINDRYIHWVRQAPGKGLEWVGVIDPSLGSTIDADSVKGRFTISADTSRNTAYLQMNSLRAEDTAVYYCARSRWFRVLWSYVFDYWGQGTLVTVSS
VL: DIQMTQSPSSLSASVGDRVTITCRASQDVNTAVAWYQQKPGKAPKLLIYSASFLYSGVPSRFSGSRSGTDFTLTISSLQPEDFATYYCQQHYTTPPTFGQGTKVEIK
notes: His/FLAG-tagged IgG1, cell-free; also called Antibody 74
As for B2, the “Bmax (MFI)” value was determined as 14400 MFI and the Kd turned out to be 15.6 nM.

B3: SRP2193-E10 (antibody, IgG1, V domains shown)
VH: EVQLVESGGGLVQPGGSLRLSCAASGFNIYDYYIHWVRQAPGKGLEWVGAIDPVNGSTNNADSVKGRFTISADTSKNTAYLQMNSLRAEDTAVYYCARSRWYRVLWSYVFDYWGQGTLVTVSS
VL: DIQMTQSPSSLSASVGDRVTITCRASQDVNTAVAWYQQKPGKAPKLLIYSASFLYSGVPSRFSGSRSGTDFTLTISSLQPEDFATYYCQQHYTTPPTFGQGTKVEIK
notes: His/FLAG-tagged IgG1, cell-free; also called Antibody 72
B3: the “Bmax (MFI)” value was determined as 15900 MFI and binding was put at a Kd of 7.14 nM.

B4: SRP2193-E09 (antibody, IgG1, V domains shown)
VH: EVQLVESGGGLVQPGGSLRLPCAASGFNIGAYYIHWVRQAPGKGLEWVGAIDPGSGYTVPADSVKGRFTISADTSKNTAYLQMNSLRAEDTAVYYCARSRWYRVLWSYVFDYWGQGTLVTVSS
VL: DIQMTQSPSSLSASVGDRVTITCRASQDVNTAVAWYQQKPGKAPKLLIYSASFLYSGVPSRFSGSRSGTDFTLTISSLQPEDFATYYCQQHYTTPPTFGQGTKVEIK
notes: His/FLAG-tagged IgG1, cell-free
Turning to B4, the “Bmax (MFI)” value came out at 16300 MFI and the Kd was 0.46 nM.

B5: SRP2193-E02 (antibody, IgG1, V domains shown)
VH: EVQLVESGGGLVQPGGSLRLSCAASGFNIKDYYIHWVRQAPGKGLEWVGSIDPTSGSTVIADSVKGRFTISADTSKNTAYLQMNSLRAEDTAVYYCARSRWWRVLWSYVFDYWGQGTLVTVSS
VL: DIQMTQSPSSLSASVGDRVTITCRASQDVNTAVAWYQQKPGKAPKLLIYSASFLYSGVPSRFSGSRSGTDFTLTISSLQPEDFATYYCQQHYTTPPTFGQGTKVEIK
notes: as for B4
Regarding B5, the “Bmax (MFI)” value was found to be 16400 MFI and the Kd worked out at 8.13 nM.

B6: SRP2193-D11 (antibody, IgG1, V domains shown)
VH: EVQLVESGGGSVQPGGSLRLSCAASGFNINAYYIHWVRQAPGKGLEWVGAIDPNTGSTVDADSVKGRFTISADTSKNTAYLQMNSLRAEDTAVYYCARSRWFRVLWSYVFDYWGQGTLVTVSS
VL: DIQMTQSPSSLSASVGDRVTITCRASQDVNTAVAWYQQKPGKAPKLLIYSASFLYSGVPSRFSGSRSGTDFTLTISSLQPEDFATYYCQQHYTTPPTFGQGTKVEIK
notes: His/FLAG-tagged IgG1, cell-free; also called Antibody 76
On to B6, for which the “Bmax (MFI)” value is 15200 MFI and binding was put at a Kd of 1.25 nM.

B7: SRP2193-D07 (antibody, IgG1, V domains shown)
VH: EVQLVESGGGLVQPGGSLRLSCAASGFNIIDYNIHWVRQAPGKGLEWVTAIGPADGSTVNADSLKGRFTISADTSKNTAYLQMNSLRAEDTAVYYCARSRWLRVLWSYVFDYWGQGTLVTVSS
VL: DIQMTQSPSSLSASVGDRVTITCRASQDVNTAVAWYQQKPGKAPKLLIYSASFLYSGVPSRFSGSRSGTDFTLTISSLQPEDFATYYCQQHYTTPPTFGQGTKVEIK
notes: as for B4
As for B7, the “Bmax (MFI)” value was 15400 MFI and the affinity, expressed as Kd, was 3.11 nM.

B8: SRP2194-A03 (antibody, IgG1, V domains shown)
VH: EVQLVESGGGLVQPGGPLRLSCAASGFNITGYYIHWVRQAPGKGLEWVGYITPNSGTTYSADSVKGRFTISADTSKNTAYLQMNSLRAEDTAVYYCARDSRRYVRPLDYWGQGTLVTVSS
VL: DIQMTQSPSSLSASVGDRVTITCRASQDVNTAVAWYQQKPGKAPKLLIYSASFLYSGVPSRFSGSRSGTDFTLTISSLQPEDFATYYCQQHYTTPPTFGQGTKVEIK
notes: as for B4
As to B8, the “Bmax (MFI)” value came out at 7610 MFI and the Kd is 5.35 nM.

B9: SRP2194-A10 (antibody, IgG1, V domains shown)
VH: EVQLVESGGGLVQPGGSLRLSCAASGFNITQYYIHWVRQAPAKGLEWVGYISPNSGSTHIADSVKGRFTISADTSKNTAYLQMNSLRAEDTAVYYCARDSRRYVRPFDYWGQSTLVTVSS
VL: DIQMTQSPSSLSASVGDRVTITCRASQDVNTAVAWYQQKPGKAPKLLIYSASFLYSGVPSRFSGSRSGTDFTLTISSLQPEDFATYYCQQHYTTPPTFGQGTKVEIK
notes: as for B4
With B9, the “Bmax (MFI)” value was 8250 MFI and the Kd is 0.16 nM.

B10: SRP2194-A08 (antibody, IgG1, V domains shown)
VH: EVQLVESGGGLVQPGGSLRLSCAASGFNITGYHIHWVRQAPGKGLEWVGYIAPSSGYTYDADSVKGRFTISADTSKNTAYLQMNSLRAEDTAVYYCARDSRRYVRPFDYWGQGTLVTVSS
VL: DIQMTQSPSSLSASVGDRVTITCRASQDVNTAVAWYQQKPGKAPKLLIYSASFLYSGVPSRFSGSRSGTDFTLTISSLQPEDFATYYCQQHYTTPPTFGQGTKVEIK
notes: as for B4
Consider B10, for which the “Bmax (MFI)” value was 8250 MFI and the dissociation constant (Kd) was 0.3 nM.

B11: SRP2194-A09 (antibody, IgG1, V domains shown)
VH: EVQLVESGGGLVQPGGSLRLSCAASGFNITGYYIHWVRQAPGKGLEWVGYITPLSGATYRADSVKGRFTISADTSKNTAYLQMNSLRAEDTAVYYCARDSRRYVRPFDYWGQGTLVTVSS
VL: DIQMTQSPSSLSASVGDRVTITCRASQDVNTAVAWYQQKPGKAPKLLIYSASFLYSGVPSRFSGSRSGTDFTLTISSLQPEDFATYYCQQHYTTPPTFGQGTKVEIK
notes: His/FLAG-tagged IgG1, cell-free; also called Antibody 130
On to B11, for which the “Bmax (MFI)” value turned out to be 8240 MFI and binding was put at a Kd of 0.13 nM.
